Laboratory results taken from US20200129582A1, “NOVEL PEPTIDES AND PEPTIDOMIMETICS” (UNIVERSITY OF AUCKLAND, priority 2016, published 2020).
Residues, ends and D or L forms follow the SMILES beside them.

Assays:
Solubility in miliQ H2O = type: physicochemical
Procedure: For cell scrape load—dye coupling assays of gap junctions, induced protein distribution changes and ATP release studies of hemichannel block, Connexin43 mimetic peptide (Peptide5, sequence VDCFLSRPTEKT (SEQ ID NO: 45)) (Auspep, Australia) was synthesized at purity >95% and dissolved in miliQ H2O at a stock concentration of 10 mM. For competition assays extracellular loop matching peptides were custom synthesised and dissolved in miliQ H2O at a stock concentration of 1 mM according to purity supplied by the manufacturer (Auspep, Australia). For Peptide5 sequence substitution studies, peptides were generated in the School of Chemical Sciences, University of Auckland. The peptides were prepared using Fmoc solid phase synthesis. Fmoc-Thr(tBu)-OH or Fmoc-Ala-OH pre-loaded to the HMPP linker and attached to in-house prepared aminomethyl PS resin 2.1 (using DIC in DMF). This was followed by alternating de-protection and coupling reactions using 5% piperazine containing 0.1 M 6-Cl-HOBt and HBTU and NMM respectively via automated Tribute Fmoc-SPPS. Resin cleavage using TFA afforded crude products, which underwent purification via semi-preparative RP-HPLC. Peptides were obtained in high purity (>95%) and with good yields (17%-46%). All alanine substituted analogues were miliQ H2O soluble (Table 5).
Peptide5 interacting site on the Connexin43 protein was determined using a competition assay. […]

[1] = target: T1, Connexin43 plaques in ARPE-19 cells (Homo sapiens, UniProt P17302); experiment: Immunocytochemistry and quantification of Cx43 plaques; type: cell-based; conditions: 2- or 6-hour treatment, Peptide5 50-500 μM, LaCl3 and CBX 500 μM
T1 construct: a cell line with high endogenous expression of connexin43; endogenous in cells; host or cells: ARPE-19
Procedure: (§1) ARPE-19 cells were grown until confluent in 8-well glass chamber-slides (BD Falcon). Confluent monolayers of ARPE-19 cells were incubated at a final concentration of 50 to 500 μM Peptide5, 500 μM LaCl3 and 500 μM CBX in culture medium for 2 or 6 hours. Cells were fixed in 4% PFA (ProSciTech) at pH 7.4 for 10 min at room temperature, permeabilized with 0.05% Triton-X100 in PBS, and incubated in 10% normal goat serum to block non-specific labelling. Cells were rinsed three times with PBS containing 0.1 mM CaCl2 between each fixation, permeabilization, and blocking steps. Connexin43 polyclonal rabbit antibody (C6219, Sigma, 1:2000) was applied overnight, followed by a goat anti-rabbit Alexa Fluor® 568 secondary antibody (Invitrogen, 1:200) for 45 minutes. Nuclei were counterstained with DAPI (Invitrogen) at 10,000-fold dilution for 5 mins, and mounted with Citifluor™ mounting medium. Images were visualised and captured using an oil immersion lens (60× magnification, 1.35 numerical aperture) on an Olympus FV1000 upright confocal laser scanning microscope and Olympus FV10-ASW 4.0 software. The Transfluor feature in MetaXpress® Image acquisition and analysis software (Version 5.3.0.1, Molecular Devices) was used to quantify the total area of Connexin43 plaques per image.
as §1

[2] = target: T2, hemichannel-mediated ATP release from hCMVEC cells (Homo sapiens, UniProt P17302); experiment: In vitro ischemia injury ATP release assay (single alanine substituted and truncated peptides); type: cell-based
T2 construct: endogenous in cells; host or cells: hCMVEC (human cerebral microvascular endothelial cells)
Procedure: The human cerebral endothelial cells (hCMVEC) were plated at a density of 0.025×10^6 cells per well in a collagen-coated 12-well plate (1 μg/cm^2) a day prior to the experiment. Cells were incubated in culture medium overnight. Hypoxic, acidic, ion-shifted Ringer injury solution that mimics ionic concentrations and acid-base shifts of the interstitial space in hypoxic-ischemic brains (Bondarenko and Chesler, 2001, […]) was used to trigger hemichannel opening. The injury solution contained (in mM): 38 NaCl, 13 NaHCO3, 3 Na-gluconate, 65 K-gluconate, 38 NMDG-Cl, 1 NaH2PO4, and 1.5 MgCl2. The injury solution was bubbled in 95% N2, 5% CO2 gas (20 L/min) for 5 minutes and pH adjusted to 6.6 before use. The standard ringer solution contained (in mM): 124 NaCl, 3 KCl, 26 NaHCO3, 26 NaHCO3, 1 NaH2PO4, 1.3 CaCl2, 1.5 MgCl2, and 10 Glucose, and pH adjusted to 7.4 before use (Bondarenko and Chesler, 2001). In the ischemia injury model, hCMVEC cells were incubated for 2 hours in 500 μL injury solution+/−Peptide5 (100 μM) (O'Carroll et al., 2008, Cell communication & adhesion 15:27-42; Danesh-Meyer et al., 2012, Brain: a journal of neurology 135:506-520; Davidson et al., 2012, Annals of neurology 71:121-132; Davidson et al., 2013, Experimental neurology 248:301-308; Davidson et al., 2014, PloS one 9:e96558; Davidson et al., 2015, J Cereb Blood Flow Metab), or +/−extracellular loop sequences (Table 5), or modified peptides (Table 2, 3) dissolved in injury solution (500 μL) with a final concentration of 100 μM. For negative control, hCMVEC cells were incubated only in 500 μL standard ringer solution for 2 hours. For positive control, hCMVEC cells were incubated only in 500 μL […] for 2 hours. All incubations were conducted at 37° C. in 95% O2 and 5% CO2. At the end of each experiment, samples were removed and immediately placed on ice. The concentration of ATP in the samples was determined using a Luciferin/luciferase bioluminescence reaction (ATP Determination Kit, Molecular Probes) and detected using a luminescence plate reader (VICTOR X, Perkin Elmer #2030-0010). Standard curves were generated in each experiment from an ATP standard (0 to 500 nM) to convert bioluminescence units to ATP concentration. […] The data is presented as mean±standard error relative to the injury or injury-reperfusion positive control. Statistically significant differences between samples were tested using one-way analysis of variance and Tukey's multiple comparisons test.
Peptides listed in table 5 and 2 were assessed using the ischemia injury model in hCMVEC cells as described above, and the medium was collected for ATP release measurement.
The human cerebral endothelial cells (hCMVEC) were plated at a density of 0.025×10^6 cells per well in a collagen-coated 12-well plate (1 μg/cm^2) a day prior to the experiment. Cells were incubated in culture medium overnight. Hypoxic, acidic, ion-shifted Ringer injury solution that mimics ionic concentrations and acid-base shifts of the interstitial space in hypoxic-ischemic brains (Bondarenko and Chesler, 2001) was used to trigger hemichannel opening. The injury solution contained (in mM): 38 NaCl, 13 NaHCO3, 3 Na-gluconate, 65 K-gluconate, 38 NMDG-Cl, 1 NaH2PO4, and 1.5 MgCl2. The injury solution was bubbled in 95% N2, 5% CO2 gas (20 L/min) for 5 minutes and pH adjusted to 6.6 before use. The standard ringer solution contained (in mM): 124 NaCl, 3 KCl, 26 NaHCO3, 26 NaHCO3, 1 NaH2PO4, 1.3 CaCl2, 1.5 MgCl2, and 10 Glucose, and pH adjusted to 7.4 before use (Bondarenko and Chesler, 2001).

[3] = target: T3, coupled gap junction channels in hCMVEC cells (Homo sapiens, UniProt P17302); type: cell-based; conditions: hCMVEC, 100 μM, FIG. 5
T3 construct: A confluent monolayer of hCMVECs was pre-incubated in Peptide5; endogenous in cells; host or cells: hCMVEC
Procedure: (§2) The hCMVEC cells were plated in 1 μg/cm^2 collagen I (Gibco) 12-well plate at a density of 0.4×10^6 cells per well, and cultured overnight. A confluent monolayer of hCMVECs was pre-incubated in Peptide5 (5-100 μM) dissolved in culture medium for 2 hours or 24 hours. CBX at a concentration of 100 μM was used as a positive control. Cells were washed three times with phosphate buffered saline (PBS) without Ca^2+ or Mg^2+. The cells were then incubated in 0.05% Lucifer Yellow (LY) (Sigma), a fluorescent dye that is transferred through coupled gap junction channels (el-Fouly et al., 1987, Experimental cell research 168:422-430), +/−Peptide5 dissolved in PBS, and scrape-wounded with a size 10 carbon steel surgical blade (Swann-Morton, England). Following 5-minute incubation at 37° C. in 95% O2 and 5% CO2 without light, the 0.05% LY solution was removed. Cells were rinsed four times with PBS with Ca^2+ or Mg^2+, and then fixed in 4% paraformaldehyde (PFA) in PBS at pH 7.4 for 10 minutes at room temperature. Cells were then washed 3 times in PBS to remove PFA before fluorescent imaging. Fluorescent images were visualised using a Nikon TE2000E inverted fluorescent microscope (10× magnification, 0.3 numerical aperture), and captured using a Digital Sight CCD camera and Eclipse Net software (Nikon). Three images within each well from three independent experiments were taken for analysis and the total number of cells showing dye uptake from those that had been loaded were counted manually by masked observers.
as §2, with “1987),” for “1987, Experimental cell research 168:422-430),”

T2 sequence (P17302 2-382 limits assumed): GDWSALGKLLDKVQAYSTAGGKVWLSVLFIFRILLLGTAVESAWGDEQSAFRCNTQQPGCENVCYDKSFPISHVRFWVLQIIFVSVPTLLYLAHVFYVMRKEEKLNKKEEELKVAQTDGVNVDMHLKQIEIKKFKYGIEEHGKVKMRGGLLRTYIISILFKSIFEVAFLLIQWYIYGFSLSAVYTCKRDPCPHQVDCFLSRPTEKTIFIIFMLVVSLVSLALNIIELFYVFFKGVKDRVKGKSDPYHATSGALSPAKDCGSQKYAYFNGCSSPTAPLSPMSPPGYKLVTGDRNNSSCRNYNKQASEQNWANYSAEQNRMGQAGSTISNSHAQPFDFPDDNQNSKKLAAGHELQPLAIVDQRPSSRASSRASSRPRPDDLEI
T1 sequence (P17302 2-382 limits assumed): as above

CC[C@H](C)[C@H](NC(=O)[C@H](Cc1ccc(O)cc1)NC(=O)[C@H](Cc1c[nH]c2ccccc12)NC(=O)[C@H](CCC(N)=O)NC(=O)[C@@H](NC(=O)[C@H](CC(C)C)NC(=O)[C@H](CC(C)C)NC(=O)[C@@H](N)Cc1ccccc1)[C@@H](C)CC)C(=O)N[C@@H](Cc1ccc(O)cc1)C(=O)NCC(=O)N[C@@H](Cc1ccccc1)C(=O)N[C@@H](CO)C(=O)N[C@@H](CC(C)C)C(=O)N[C@@H](CO)C(=O)N[C@@H](C)C(=O)N[C@H](C(=O)N[C@@H](Cc1ccc(O)cc1)C(=O)N[C@H](C(=O)N[C@@H](CS)C(=O)O)[C@@H](C)O)C(C)C [EL2a, FLLIQ WYIYG FSLSA VYTC] (H-FLLIQWYIYGFSLSAVYTC-OH; N-terminus and C-terminus assumed)
solubility in miliQ H2O (Solubility in miliQ H2O): soluble in miliQ H2O except for the EL2a sequence

[Cl][La]([Cl])[Cl] [LaCl3, Lanthanum chloride, reference compound]
Connexin43 labelling per cell compared to untreated control (in words) [1]: not significantly different to the control | ATP release, % of the injury control [2]: 47.8±13.6% | ATP release compared to injury control (in words) ([2]; hCMVEC, 100 μM, FIG. 3): significantly reduced ATP release

RFKPSLCTTDEV [scrambled peptide]
LY dye transfer, comparison in words [3]: no significant difference

SRPTEKT [mod-3]
LY dye transfer, % of the untreated control ([3]; 2-hour exposure, untreated control 100±4.5%): 77.6±4.8% | LY dye transfer, comparison in words [3]: comparable to the native Peptide5 | ATP release compared to injury control (in words) ([2]; hCMVEC, 100 μM, FIG. 4): not significantly different to the injury control | ATP release compared to native Peptide5 (in words) ([2]; hCMVEC, 100 μM, FIG. 4): significantly greater ATP release
